US20160151452A1

Assays:
EphB2-Fc [1] = test: SPR, 100 nM analyte over immobilised EphB2-Fc
[2] = target: EphB2 transiently expressed in DU145 cells; test: cell-based or functional assay
EphB2-Fc [3] = test: SPR competition on immobilised EphB2-Fc; competitor ephrinB2-Fc 246 nM
EphB2-Fc [4] = test: SPR competition on immobilised EphB2-Fc; competitor ephrinB2-Fc 246 nM preincubated with 0-1020 nM GST-Azu 88-113
EphA6-Fc = test: SPR, azurin immobilised on CM5 chip, 100 nM Eph-Fc injected
EphB2-Fc [5] = test: as above
EphB2-Fc [6] = test: SPR titration (0.05-100 nM) on immobilised EphB2-Fc, Langmuir 1:1 fit
EphB2-Fc [7] = test: SPR competition on immobilised EphB2-Fc; competitor ephrinB2-Fc 246 nM preincubated with 0-1020 nM azurin
EphB2-Fc [8] = test: SPR titration on immobilised EphB2-Fc, Langmuir 1:1 fit

Chain of EphB2-Fc (P54763 19-543): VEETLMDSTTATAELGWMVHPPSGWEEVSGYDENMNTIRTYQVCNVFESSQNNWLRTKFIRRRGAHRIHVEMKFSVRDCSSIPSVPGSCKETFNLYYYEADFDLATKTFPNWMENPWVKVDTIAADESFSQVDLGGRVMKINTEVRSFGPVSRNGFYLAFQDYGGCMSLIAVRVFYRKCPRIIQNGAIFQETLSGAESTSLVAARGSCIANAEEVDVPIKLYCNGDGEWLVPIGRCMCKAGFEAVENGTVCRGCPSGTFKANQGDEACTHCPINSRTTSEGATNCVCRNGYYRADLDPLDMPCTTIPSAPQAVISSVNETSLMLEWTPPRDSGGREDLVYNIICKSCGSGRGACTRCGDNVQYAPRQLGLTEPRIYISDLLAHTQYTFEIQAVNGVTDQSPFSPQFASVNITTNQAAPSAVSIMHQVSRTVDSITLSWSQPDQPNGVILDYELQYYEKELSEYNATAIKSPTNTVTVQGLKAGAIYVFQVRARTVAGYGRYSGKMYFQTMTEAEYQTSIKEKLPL
Chain of azurin from Pseudomonas aeruginosa (P00282 21-148 limits assumed): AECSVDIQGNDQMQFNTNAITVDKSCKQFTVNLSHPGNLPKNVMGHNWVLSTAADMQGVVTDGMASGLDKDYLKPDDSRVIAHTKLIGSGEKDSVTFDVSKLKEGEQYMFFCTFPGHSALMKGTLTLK
Chain of ephrinB2-Fc (Fc fusion) (P52800 29-232): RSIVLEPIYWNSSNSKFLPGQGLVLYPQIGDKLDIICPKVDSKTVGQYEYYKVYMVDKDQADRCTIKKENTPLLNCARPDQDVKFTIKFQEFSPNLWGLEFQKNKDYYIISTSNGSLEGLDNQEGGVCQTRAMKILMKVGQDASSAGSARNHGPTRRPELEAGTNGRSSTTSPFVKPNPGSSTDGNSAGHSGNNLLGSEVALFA
Chain of GST-Azu 88-113 (P08515 1-218, tags or fused parts left off): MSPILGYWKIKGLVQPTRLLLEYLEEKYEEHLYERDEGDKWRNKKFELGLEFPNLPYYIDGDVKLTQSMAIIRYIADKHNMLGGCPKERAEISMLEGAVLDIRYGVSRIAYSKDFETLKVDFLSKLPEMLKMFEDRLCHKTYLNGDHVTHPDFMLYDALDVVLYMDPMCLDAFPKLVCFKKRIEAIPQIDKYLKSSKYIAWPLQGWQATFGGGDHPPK
Chain of glutathione S-transferase (GST) (P08515 whole entry): as the sequence (P08515 1-218, tags or fused parts left off) above
Chain of EphA6-Fc (Q9UF33 whole entry): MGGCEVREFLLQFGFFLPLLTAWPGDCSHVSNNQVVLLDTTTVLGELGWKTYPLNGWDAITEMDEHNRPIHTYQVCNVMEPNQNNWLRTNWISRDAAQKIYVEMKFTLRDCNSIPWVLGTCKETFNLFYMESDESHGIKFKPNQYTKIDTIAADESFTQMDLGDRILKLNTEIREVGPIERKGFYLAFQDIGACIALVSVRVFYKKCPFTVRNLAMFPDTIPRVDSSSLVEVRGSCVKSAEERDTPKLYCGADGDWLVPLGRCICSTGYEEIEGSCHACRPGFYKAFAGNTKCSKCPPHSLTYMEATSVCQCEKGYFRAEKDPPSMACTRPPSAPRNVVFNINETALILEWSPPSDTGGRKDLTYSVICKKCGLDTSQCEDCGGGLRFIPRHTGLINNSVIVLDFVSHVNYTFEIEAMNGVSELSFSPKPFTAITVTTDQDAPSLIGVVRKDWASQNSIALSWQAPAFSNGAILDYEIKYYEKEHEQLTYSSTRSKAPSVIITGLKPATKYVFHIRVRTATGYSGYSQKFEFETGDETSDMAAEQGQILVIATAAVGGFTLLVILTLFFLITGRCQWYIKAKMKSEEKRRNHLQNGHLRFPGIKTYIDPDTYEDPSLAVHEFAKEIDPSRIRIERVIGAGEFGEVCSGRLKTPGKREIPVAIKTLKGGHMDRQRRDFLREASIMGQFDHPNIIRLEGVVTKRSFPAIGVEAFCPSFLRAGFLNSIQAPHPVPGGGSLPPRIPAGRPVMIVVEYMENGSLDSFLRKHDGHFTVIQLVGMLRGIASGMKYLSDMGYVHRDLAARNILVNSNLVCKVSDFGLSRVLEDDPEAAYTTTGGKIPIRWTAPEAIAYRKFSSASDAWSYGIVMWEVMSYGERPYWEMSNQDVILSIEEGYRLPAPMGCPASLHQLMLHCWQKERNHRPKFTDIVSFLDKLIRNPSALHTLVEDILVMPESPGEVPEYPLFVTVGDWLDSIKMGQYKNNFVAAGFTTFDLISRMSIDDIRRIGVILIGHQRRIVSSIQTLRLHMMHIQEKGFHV
Chain of GST-Azu 36-89 (P08515 1-218, tags or fused parts left off): as the sequence (P08515 1-218, tags or fused parts left off) above

Substance	Req in RU (EphB2-Fc [1]) [RU]	level at which the inhibition levels off (EphB2-Fc [3]) [%]	Kd (EphB2-Fc [6]) [µM]	Kd (EphB2-Fc [8]) [µM]	also measured
GST-Azu 36-89 (from UniProt P08515 1-218)	57				
GST-Azu 88-113 (from UniProt P08515 1-218)		40 to 50			decrease in phosphotyrosine level on cotreatment with ephrinB2 (lane 11 against lane 8) [2]: 21%; decrease in phosphotyrosine level on cotreatment with ephrinB2 (lane 12 against lane 9) [2]: 42%; decrease in phosphotyrosine level on cotreatment with ephrinB2 (lane 13 against lane 10) [2]: 45%; reduction of total protein binding to the surface (EphB2-Fc [4]): < 60%
azurin from Pseudomonas aeruginosa (from UniProt P00282 21-148)	427	40 to 50	0.006		lower level of tyrosine phosphorylation with azurin plus ephrinB2 than with ephrinB2 alone [2]: 30 to 40%; Req (saturating resonance) (EphA6-Fc): 1200 RU; Req (saturating resonance) (EphB2-Fc [5]): 1250 RU; reduction of total protein binding to the surface (EphB2-Fc [7]): < 60%
ephrinB2-Fc (Fc fusion)	159		0.03	0.03	
glutathione S-transferase (GST) (from UniProt P08515 1-218) (enzyme)	14			> 0.16	
